From the supplement of paper PMC10065799, “High-throughput profiling of sequence recognition by tyrosine kinases and SH2 domains using bacterial peptide display” (eLife, 2023)

Columns and labels:
FGFR3 = FGFR3 (UniProt P22607); test: phosphorylation enrichment, bacterial display (enrichment ratio); higher = better substrate or ligand; peptides without Tyr show the background
Jak2 = Jak2 (UniProt O60674); test: as above
AncSZ = test: as above
Fes = Fes (UniProt P07332); test: as above
MERTK = MERTK (UniProt Q12866); test: as above
Chain of MERTK (Q12866 whole entry, looked up): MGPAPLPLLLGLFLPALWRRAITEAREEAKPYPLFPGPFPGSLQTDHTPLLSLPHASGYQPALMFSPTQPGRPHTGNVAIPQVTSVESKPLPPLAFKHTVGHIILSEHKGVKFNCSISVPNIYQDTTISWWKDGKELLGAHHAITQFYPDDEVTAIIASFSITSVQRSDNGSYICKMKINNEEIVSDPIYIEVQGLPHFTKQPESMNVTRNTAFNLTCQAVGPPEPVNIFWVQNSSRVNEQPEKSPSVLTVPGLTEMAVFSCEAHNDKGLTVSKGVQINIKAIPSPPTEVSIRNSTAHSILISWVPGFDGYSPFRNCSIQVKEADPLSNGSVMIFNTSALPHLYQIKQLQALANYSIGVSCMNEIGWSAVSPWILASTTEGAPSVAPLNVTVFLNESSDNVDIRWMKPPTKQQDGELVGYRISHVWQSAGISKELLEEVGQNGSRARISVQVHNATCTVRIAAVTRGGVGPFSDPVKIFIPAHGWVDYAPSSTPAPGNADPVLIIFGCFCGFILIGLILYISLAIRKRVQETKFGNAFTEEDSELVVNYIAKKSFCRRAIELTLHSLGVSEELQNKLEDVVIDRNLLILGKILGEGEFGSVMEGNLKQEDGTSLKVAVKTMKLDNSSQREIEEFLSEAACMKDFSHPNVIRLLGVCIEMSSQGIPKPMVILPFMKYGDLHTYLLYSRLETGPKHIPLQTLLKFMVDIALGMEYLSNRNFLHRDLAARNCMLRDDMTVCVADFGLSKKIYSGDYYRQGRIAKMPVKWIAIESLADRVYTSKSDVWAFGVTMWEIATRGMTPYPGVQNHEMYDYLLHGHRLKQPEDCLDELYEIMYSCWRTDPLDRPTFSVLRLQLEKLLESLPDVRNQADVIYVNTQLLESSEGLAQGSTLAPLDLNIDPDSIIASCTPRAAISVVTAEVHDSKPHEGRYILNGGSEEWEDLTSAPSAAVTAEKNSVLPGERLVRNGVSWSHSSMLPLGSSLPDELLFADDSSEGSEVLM

EPHB2 = EPHB2 (UniProt P29323); test: as above
Chain of EPHB2 (P29323 whole entry, looked up): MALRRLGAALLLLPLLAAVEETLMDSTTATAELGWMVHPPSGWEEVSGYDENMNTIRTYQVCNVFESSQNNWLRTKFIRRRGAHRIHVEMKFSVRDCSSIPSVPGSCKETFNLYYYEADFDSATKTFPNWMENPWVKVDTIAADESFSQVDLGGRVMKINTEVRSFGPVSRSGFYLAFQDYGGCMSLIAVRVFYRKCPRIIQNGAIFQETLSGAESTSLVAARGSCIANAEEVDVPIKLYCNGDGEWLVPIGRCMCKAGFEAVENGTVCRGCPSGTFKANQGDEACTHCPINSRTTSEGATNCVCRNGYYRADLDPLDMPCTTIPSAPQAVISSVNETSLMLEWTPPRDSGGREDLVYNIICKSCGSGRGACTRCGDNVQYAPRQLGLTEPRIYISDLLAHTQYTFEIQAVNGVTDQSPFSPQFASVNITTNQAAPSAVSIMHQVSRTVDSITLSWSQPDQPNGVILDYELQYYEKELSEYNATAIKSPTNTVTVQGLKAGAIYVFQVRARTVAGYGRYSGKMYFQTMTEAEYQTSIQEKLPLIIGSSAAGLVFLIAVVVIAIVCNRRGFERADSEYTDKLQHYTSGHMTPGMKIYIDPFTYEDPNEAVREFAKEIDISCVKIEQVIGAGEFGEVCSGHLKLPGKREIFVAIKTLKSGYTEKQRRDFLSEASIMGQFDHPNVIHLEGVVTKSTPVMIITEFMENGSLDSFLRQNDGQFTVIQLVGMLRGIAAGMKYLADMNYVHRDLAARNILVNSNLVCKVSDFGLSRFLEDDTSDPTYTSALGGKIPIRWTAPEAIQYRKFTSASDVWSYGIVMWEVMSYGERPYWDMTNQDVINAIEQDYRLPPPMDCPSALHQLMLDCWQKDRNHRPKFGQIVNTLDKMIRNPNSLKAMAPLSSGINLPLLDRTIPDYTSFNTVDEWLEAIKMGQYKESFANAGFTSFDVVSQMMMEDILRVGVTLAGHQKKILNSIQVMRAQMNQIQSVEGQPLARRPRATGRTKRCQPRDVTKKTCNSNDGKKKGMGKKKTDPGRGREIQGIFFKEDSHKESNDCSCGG

c-Abl (mouse) = test: as above
c-Src = test: as above
EPHB1 = EPHB1 (UniProt P54762); test: as above
FGFR1 = FGFR1 (UniProt P11362); test: as above
Chain of FGFR1 (P11362 whole entry, looked up): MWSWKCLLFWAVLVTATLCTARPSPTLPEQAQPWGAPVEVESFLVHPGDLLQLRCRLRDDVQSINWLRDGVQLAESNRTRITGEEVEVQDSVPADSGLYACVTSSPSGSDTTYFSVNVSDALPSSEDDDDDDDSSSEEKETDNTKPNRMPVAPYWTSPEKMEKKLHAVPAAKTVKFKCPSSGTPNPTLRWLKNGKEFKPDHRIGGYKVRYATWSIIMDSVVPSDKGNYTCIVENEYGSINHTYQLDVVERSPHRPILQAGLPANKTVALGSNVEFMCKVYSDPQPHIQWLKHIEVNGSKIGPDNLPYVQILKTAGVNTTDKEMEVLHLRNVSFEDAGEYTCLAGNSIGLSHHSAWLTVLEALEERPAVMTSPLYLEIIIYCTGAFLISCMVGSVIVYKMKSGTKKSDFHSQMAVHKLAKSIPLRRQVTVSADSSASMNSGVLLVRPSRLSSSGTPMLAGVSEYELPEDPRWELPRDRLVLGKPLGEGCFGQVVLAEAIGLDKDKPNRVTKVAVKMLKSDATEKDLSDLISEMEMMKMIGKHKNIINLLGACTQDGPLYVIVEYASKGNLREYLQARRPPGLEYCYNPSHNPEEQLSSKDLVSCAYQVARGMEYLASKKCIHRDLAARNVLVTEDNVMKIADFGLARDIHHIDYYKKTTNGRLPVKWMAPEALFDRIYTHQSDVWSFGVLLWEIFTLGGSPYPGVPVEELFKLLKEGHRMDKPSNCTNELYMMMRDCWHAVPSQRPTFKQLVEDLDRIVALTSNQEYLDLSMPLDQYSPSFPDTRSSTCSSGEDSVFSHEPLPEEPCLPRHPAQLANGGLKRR

Fer (mouse) = test: as above
Hck = Hck (UniProt P08631); test: as above
Chain of Hck (P08631 whole entry, looked up): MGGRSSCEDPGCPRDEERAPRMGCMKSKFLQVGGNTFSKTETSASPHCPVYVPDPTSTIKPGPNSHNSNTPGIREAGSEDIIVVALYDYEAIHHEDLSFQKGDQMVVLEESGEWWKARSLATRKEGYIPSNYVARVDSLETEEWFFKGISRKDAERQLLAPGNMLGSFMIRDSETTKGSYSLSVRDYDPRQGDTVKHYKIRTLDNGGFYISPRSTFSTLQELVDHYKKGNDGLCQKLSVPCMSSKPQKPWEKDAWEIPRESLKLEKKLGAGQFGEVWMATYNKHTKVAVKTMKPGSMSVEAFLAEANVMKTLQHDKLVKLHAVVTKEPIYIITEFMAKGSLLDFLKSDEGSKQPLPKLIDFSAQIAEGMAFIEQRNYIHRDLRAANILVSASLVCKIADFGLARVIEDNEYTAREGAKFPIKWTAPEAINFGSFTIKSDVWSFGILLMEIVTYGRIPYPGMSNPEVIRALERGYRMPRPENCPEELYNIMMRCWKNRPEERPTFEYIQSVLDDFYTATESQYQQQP

Fyn = Fyn (UniProt P06241); test: as above
Grb2 SH2 = Grb2 SH2 (UniProt P62993); test: SH2 binding enrichment of the phosphorylated peptide, bacterial display (enrichment ratio); higher = better substrate or ligand; peptides without Tyr show the background
Chain of Grb2 SH2 (P62993 whole entry, looked up): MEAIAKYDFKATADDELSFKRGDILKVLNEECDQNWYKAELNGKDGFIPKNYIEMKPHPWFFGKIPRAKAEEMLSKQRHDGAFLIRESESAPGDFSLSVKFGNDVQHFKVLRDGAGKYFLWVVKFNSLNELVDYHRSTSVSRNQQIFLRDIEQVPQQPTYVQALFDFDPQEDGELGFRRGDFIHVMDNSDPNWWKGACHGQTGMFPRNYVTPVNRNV

SHP2-C SH2 = test: as above
c-Src SH2 = test: as above
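For SH2 binding enrichment of the phosphorylated peptide, bacterial display in this document: peptide library displayed on the E. coli surface as eCPX fusions, selected cells deep-sequenced, score is each peptide's frequency after selection divided by its frequency in the input.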
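For phosphorylation enrichment, bacterial display in this document: 11-residue human phosphosite peptides and single-mutation variants displayed on the E. coli surface, counted by deep sequencing, each peptide's frequency after selection divided by its frequency in the unselected input library; frequency after pTyr selection over input frequency; kinase dosed for 20-30% of maximal phosphorylation in three min.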

Chain of Jak2 (O60674 whole entry, looked up): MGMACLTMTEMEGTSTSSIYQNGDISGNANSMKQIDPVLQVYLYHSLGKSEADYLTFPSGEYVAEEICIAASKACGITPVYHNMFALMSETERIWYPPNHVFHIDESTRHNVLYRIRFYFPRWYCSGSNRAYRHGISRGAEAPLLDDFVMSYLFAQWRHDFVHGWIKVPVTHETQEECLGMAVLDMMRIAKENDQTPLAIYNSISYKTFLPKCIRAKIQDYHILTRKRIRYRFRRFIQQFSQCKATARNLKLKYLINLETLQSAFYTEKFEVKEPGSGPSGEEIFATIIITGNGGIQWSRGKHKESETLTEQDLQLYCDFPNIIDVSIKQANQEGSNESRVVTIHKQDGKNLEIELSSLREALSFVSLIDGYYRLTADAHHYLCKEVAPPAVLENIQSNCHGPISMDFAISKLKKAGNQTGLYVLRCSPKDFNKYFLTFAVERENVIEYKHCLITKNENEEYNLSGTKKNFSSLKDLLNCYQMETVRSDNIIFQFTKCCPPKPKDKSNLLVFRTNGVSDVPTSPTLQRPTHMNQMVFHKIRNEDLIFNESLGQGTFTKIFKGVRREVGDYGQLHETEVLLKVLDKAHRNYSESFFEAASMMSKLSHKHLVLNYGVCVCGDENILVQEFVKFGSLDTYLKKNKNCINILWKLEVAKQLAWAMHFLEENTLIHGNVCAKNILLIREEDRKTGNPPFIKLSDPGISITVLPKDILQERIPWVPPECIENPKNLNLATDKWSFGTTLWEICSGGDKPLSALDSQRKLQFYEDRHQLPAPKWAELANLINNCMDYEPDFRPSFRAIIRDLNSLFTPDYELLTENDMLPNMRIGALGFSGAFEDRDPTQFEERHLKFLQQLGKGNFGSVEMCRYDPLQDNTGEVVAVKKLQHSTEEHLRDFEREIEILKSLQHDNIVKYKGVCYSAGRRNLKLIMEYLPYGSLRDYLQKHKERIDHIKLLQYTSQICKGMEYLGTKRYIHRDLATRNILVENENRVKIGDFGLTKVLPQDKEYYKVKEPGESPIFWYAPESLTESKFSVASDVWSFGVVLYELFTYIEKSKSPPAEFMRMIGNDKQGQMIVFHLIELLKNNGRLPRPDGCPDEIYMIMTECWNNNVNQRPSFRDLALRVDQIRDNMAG

Sequence | phosphorylation enrichment (FGFR3) | phosphorylation enrichment (Jak2) | phosphorylation enrichment (AncSZ) | phosphorylation enrichment (Fes) | phosphorylation enrichment (MERTK) | phosphorylation enrichment (EPHB2) | phosphorylation enrichment (c-Abl (mouse)) | phosphorylation enrichment (c-Src) | phosphorylation enrichment (EPHB1) | phosphorylation enrichment (FGFR1) | phosphorylation enrichment (Fer (mouse)) | phosphorylation enrichment (Hck) | phosphorylation enrichment (Fyn) | SH2 binding enrichment (Grb2 SH2) | SH2 binding enrichment (SHP2-C SH2) | SH2 binding enrichment (c-Src SH2)
DIDKIYVRTGI [PIK3CA_Y355] | 0.772 | 0.878 | 0.975 | 0.934 | 0.33 | 0.593 | 0.713 | 0.528 | 0.697 | 0.518 | 0.525 | 0.529 | 0.458 | 0.864 | 0.757 | 0.539
IMWDSYTTNKV [GNB3_Y85_V81M] | 0.64 | 0.91 | 0.945 | 0.885 | 0.305 | 0.437 | 0.553 | 0.369 | 0.544 | 0.451 | 0.392 | 0.421 | 0.33 | 0.749 | 0.675 | 0.66
PLDGEYFTRQI [TP53_Y327_L330R] | 0.651 | 0.637 | 1.09 | 1.01 | 0.54 | 0.435 | 1.2 | 0.841 | 0.441 | 0.387 | 0.291 | 0.686 | 0.547 | 0.692 | 0.836 | 0.675
ADKSVYLMGLN [MYH7_Y386_A385V] | 0.523 | 0.51 | 0.666 | 0.769 | 0.379 | 0.409 | 0.338 | 0.678 | 0.407 | 0.444 | 0.413 | 0.481 | 0.583 | 0.92 | 1.54 | 0.528
ELANLYHHVCM [BICD2_Y538] | 1.49 | 1.23 | 1.17 | 1.05 | 1.24 | 0.708 | 0.982 | 1.47 | 0.666 | 1.57 | 1.77 | 2.17 | 0.869 | 0.673 | 0.597 | 0.783
EKQVAYCPSGR [ROS1_Y2323_K2328R] | 0.705 | 1.27 | 2.05 | 1.18 | 0.667 | 0.615 | 1.06 | 0.782 | 0.511 | 0.531 | 0.675 | 0.501 | 0.569 | 1.01 | 0.59 | 0.631
HFNLTYRILSF [MMP23B_Y95] | 1.19 | 1.8 | 1.6 | 1.8 | 0.481 | 0.615 | 1.47 | 0.636 | 0.826 | 0.486 | 0.726 | 0.644 | 0.391 | 0.586 | 0.587 | 0.326
HKANEYFPVVI [ADAMTS18_Y764_L769I_YF] | 5.96 | 2.38 | 1.35 | 0.973 | 0.663 | 0.806 | 1.01 | 0.625 | 0.762 | 11.8 | 0.874 | 0.569 | 0.594 | 0.767 | 0.86 | 0.485
RNFGTYTAGLS [RHBDD1_Y264_D262G_YF] | 1.07 | 0.315 | 0.702 | 0.495 | 0.302 | 0.477 | 0.445 | 0.517 | 0.377 | 0.483 | 0.798 | 0.657 | 0.441 | 0.631 | 0.684 | 0.437
KNNDGNIDFAE [MCFD2_Y135_Y135N_YF] | 0.683 | 1.21 | 1.07 | 1.26 | 0.589 | 0.673 | 1 | 0.462 | 0.504 | 0.447 | 0.525 | 0.539 | 0.558 | 0.912 | 0.834 | 0.6
CGPLLYGLVHQ [PRKCG_Y122_S119P] | 0.723 | 1.06 | 0.884 | 1.16 | 4.98 | 4.12 | 0.73 | 4.08 | 2.72 | 0.593 | 8.22 | 4.88 | 3.72 | 0.815 | 0.881 | 0.517
FFDANYDGKEF [MAPRE2_Y162_YF] | 0.695 | 0.957 | 1.11 | 1.42 | 0.424 | 0.666 | 0.611 | 0.443 | 0.558 | 0.824 | 0.446 | 0.601 | 0.529 | 0.68 | 0.759 | 0.501
PNRILYGDFWQ [MYH6_Y717_R721W] | 0.935 | 0.999 | 1.1 | 1.29 | 0.849 | 0.939 | 0.778 | 4.24 | 0.689 | 0.555 | 0.626 | 2.16 | 5.79 | 0.807 | 0.666 | 0.467
HDRREYSRFEK [ITGB7_Y758_Y753H] | 0.718 | 0.647 | 0.743 | 0.973 | 0.445 | 0.373 | 0.887 | 0.53 | 0.754 | 0.585 | 0.731 | 0.524 | 0.317 | 0.965 | 0.873 | 0.722
SVGVPYEPPEV [TP53_Y220_V217G] | 0.748 | 1.09 | 1.16 | 1.29 | 0.485 | 0.57 | 0.881 | 0.509 | 0.534 | 0.523 | 0.585 | 0.577 | 0.545 | 0.718 | 0.861 | 0.444
EFGSGYPNDPK [RNASEH2A_Y210_D205E_YF] | 0.594 | 0.797 | 0.884 | 0.875 | 0.653 | 0.51 | 0.79 | 0.539 | 0.562 | 0.406 | 0.41 | 0.503 | 0.441 | 0.879 | 0.611 | 0.376
DRLASYLDKLR [KRT12_Y139_V143L] | 0.597 | 0.713 | 0.921 | 0.894 | 0.45 | 0.567 | 0.868 | 0.498 | 0.494 | 0.458 | 0.479 | 0.472 | 0.459 | 0.876 | 0.582 | 0.545

Sequence | phosphorylation enrichment (FGFR3) | phosphorylation enrichment (Jak2) | phosphorylation enrichment (AncSZ) | phosphorylation enrichment (Fes) | phosphorylation enrichment (MERTK) | phosphorylation enrichment (EPHB2) | phosphorylation enrichment (c-Abl (mouse)) | phosphorylation enrichment (c-Src) | phosphorylation enrichment (EPHB1) | phosphorylation enrichment (FGFR1) | phosphorylation enrichment (Fer (mouse)) | phosphorylation enrichment (Hck) | phosphorylation enrichment (Fyn) | SH2 binding enrichment (Grb2 SH2) | SH2 binding enrichment (SHP2-C SH2) | SH2 binding enrichment (c-Src SH2)
FLNSIYKCRDE [ROS1_Y2227_S2229C] | 0.662 | 1.24 | 0.953 | 0.909 | 0.311 | 0.514 | 0.78 | 0.774 | 0.463 | 0.579 | 0.477 | 0.572 | 0.488 | 0.895 | 0.667 | 0.518
CTTIDYNYMCN [TP53_Y234_H233D] | 0.831 | 0.838 | 1.3 | 0.93 | 0.449 | 0.643 | 0.682 | 0.488 | 0.715 | 0.957 | 0.464 | 0.598 | 0.558 | 0.768 | 1 | 1.34
SASQEYHIVKK [PDZD2_Y557] | 0.538 | 0.572 | 0.779 | 0.676 | 0.507 | 0.527 | 0.697 | 0.441 | 0.512 | 0.905 | 0.48 | 0.513 | 0.422 | 0.78 | 0.893 | 0.792
FGISGYVVDSV [MAP2K3_Y214_L215V] | 0.623 | 0.761 | 0.775 | 0.956 | 0.443 | 0.517 | 0.532 | 0.412 | 0.543 | 0.478 | 0.421 | 0.49 | 0.449 | 0.742 | 0.605 | 0.719
QYKDKYLAKHN [CASK_Y712] | 0.663 | 0.605 | 0.401 | 0.927 | 0.283 | 0.402 | 0.458 | 0.308 | 0.501 | 0.526 | 0.349 | 0.207 | 0.436 | 0.648 | 0.798 | 1.02
VNNTVYGIDAM [EIF3J_Y143_A141T] | 0.461 | 0.696 | 0.724 | 0.698 | 0.349 | 0.429 | 0.616 | 0.596 | 0.479 | 0.512 | 0.423 | 0.626 | 0.907 | 0.984 | 0.533 | 0.564
KMKGDYYRYLA [YWHAG_Y130] | 5.52 | 2.55 | 0.647 | 0.747 | 2.1 | 1.36 | 0.705 | 0.73 | 1.45 | 8.74 | 0.393 | 0.816 | 0.594 | 1.76 | 1.75 | 1.53
VPLLEYFWDIF [CDAN1_Y712_R714W_YF] | 2.73 | 1.12 | 1.02 | 1.16 | 0.413 | 0.469 | 0.666 | 0.411 | 0.455 | 3.61 | 0.439 | 0.432 | 0.449 | 1.8 | 2.12 | 1.68
RREWYYEVIIA [BACE1_Y260_V265A] | 2.9 | 1.26 | 1.3 | 0.733 | 1.52 | 0.442 | 0.542 | 0.926 | 0.539 | 4.47 | 0.764 | 0.513 | 0.462 | 0.673 | 0.55 | 0.415
CRIELYRIVES [IGFBP1_Y181_V183I] | 0.837 | 1.28 | 1.21 | 1.49 | 0.451 | 0.616 | 0.991 | 0.53 | 1.82 | 0.422 | 0.579 | 0.548 | 0.455 | 0.888 | 0.682 | 0.556
GGYTCYSDGKK [PROS1_Y266_C267S] | 0.826 | 1.01 | 1.13 | 1.22 | 0.441 | 0.561 | 0.908 | 0.516 | 0.677 | 0.592 | 0.593 | 0.499 | 0.458 | 0.677 | 0.745 | 0.555
YQRITYHNWRH [PDE6B_Y556_R552Q] | 0.618 | 0.561 | 0.59 | 0.619 | 0.482 | 0.483 | 0.485 | 0.486 | 0.386 | 0.626 | 0.461 | 0.579 | 0.446 | 1.62 | 1.68 | 2.5
TISPYYCQSLF [CRYAA_Y48_R49C] | 4.43 | 1.26 | 1.1 | 1.13 | 5.18 | 0.543 | 1.13 | 1.76 | 0.934 | 5.32 | 0.939 | 0.79 | 1.12 | 0.867 | 0.743 | 2.21
MVTSGYKAKMI [EFR3A_Y447_T451M] | 0.389 | 0.695 | 0.563 | 0.589 | 0.414 | 0.528 | 0.552 | 0.435 | 0.401 | 0.384 | 0.393 | 0.39 | 0.355 | 0.871 | 0.469 | 0.539
QTLTDYDIRFY [CSNK2A1_Y131] | 0.84 | 1.18 | 1.27 | 1.27 | 0.484 | 0.72 | 0.913 | 0.603 | 0.825 | 0.62 | 0.586 | 0.526 | 0.552 | 0.795 | 0.775 | 0.548
YGGRDYSLDEF [MYOF_Y1705] | 0.697 | 0.945 | 0.981 | 1.1 | 0.454 | 0.609 | 0.809 | 0.594 | 0.594 | 0.582 | 0.618 | 0.603 | 0.657 | 0.765 | 0.472 | 0.947
